Positions count from the first letter of the chain named.
B1: HuMab-CD74-006-mcMMAF (antibody, IgG1, V domains shown)
VH: QVQLVESGGGVVQPGRSLRLSCAASGFTFSSYAMHWVRQAPGKGLEWVAVISYDGSIKYYADSVKGRFTISRDNSKNTLYLQMNSLRVEDTAVFYCARGREITSQNIVILLDYWGQGTLVTVTS
VL: DIQMTQSPSSLSASVGDRVTITCRASQGISSWLAWYQQKPEKAPKSLIYAASSLQSGVPSRFSGSGSGTDFTLTISSLQPEDFATYYCQQYNSYPLTFGGGTKVEIK
modifications: drug-linker mcMMAF alkylated to the cysteines of the reduced antibody (DAR 3.7-4.1)
notes: Antibody-drug conjugate of HuMab-CD74-006 (IgG1,kappa)
B2: HuMab-CD74-006-vcMMAE (antibody, IgG1, V domains shown)
VH: B1 VH
VL: B1 VL
modifications: drug-linker vcMMAE alkylated to the cysteines of the reduced antibody (DAR 4.0)
notes: Antibody-drug conjugate of HuMab-CD74-006 (IgG1,kappa); also called vcMMAE-conjugated HuMab-CD74-006
B3: HuMab-CD74-006 (antibody, human IgG1, V domains shown)
VH: B1 VH
VL: B1 VL
notes: Human IgG1,kappa antibody produced transiently in HEK-293F cells; also called antibody 006
B4: HuMab-CD74-005 (antibody, human IgG1, V domains shown)
VH: QVQLVESGGGVVQPGRSLRLSCAASGFTFSSYAMHWVRQAPGKGLEWVAVISYDGSNKYYADSVKGRFTISRDNSKNTLYLQMNSLRAEDTAVYYCASGRYYGSGSYSSYFDYWGQGTLVTVSS
VL: B1 VL with Y36F
notes: Human IgG1,kappa; produced transiently in HEK-293F cells; also called antibody 005
B5: HuMab-CD74-005-vcMMAE (antibody, IgG1, V domains shown)
VH: B4 VH
VL: B1 VL with Y36F
modifications: drug-linker vcMMAE alkylated to the cysteines of the reduced antibody (DAR 3.9-4.0)
notes: Antibody-drug conjugate of HuMab-CD74-005 (IgG1,kappa); also called vcMMAE-conjugate of HuMab-CD74-005
B6: HuMab-CD74-005-mcMMAF (antibody, IgG1, V domains shown)
VH: B4 VH
VL: B1 VL with Y36F
modifications: drug-linker mcMMAF alkylated to the cysteines of the reduced antibody (DAR 3.9-4.0)
notes: Antibody-drug conjugate of HuMab-CD74-005 (IgG1,kappa); also called mcMMAF-conjugate of HuMab-CD74-005

What was measured:
[1] = target: human CD74, naturally expressed on cells (Raji, Daudi, M4A4, NCI-H747 cells; human tonsil tissue) (human) (UniProt P04233); assay: FACS on Daudi cells; mean of three experiments
[2] = target: T1, HisCD74v1 (recombinant extracellular domain of human CD74 variant 1, N-terminal hexameric His tag) (human, UniProt P04233 73-296); assay: ELISA, coated recombinant CD74v1 extracellular domain (CD74ECDHis); mean of four experiments
T1 construct: also called recombinant CD74v1; CD74v1 extracellular domain
T1 sequence: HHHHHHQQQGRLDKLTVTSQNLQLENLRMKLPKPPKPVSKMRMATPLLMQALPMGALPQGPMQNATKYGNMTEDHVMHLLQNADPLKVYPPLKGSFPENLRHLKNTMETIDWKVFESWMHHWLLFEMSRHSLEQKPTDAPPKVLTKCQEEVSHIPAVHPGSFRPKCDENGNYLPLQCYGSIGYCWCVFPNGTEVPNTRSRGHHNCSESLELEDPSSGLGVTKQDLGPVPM
Protocol: ELISA plates (Greiner BioOne) were coated with 2 μg/mL, 100 μL per well, recombinant CD74ECDHis in PBS (B. Braun Melsungen AG) at 4° C., 0/N. ELISA plates were emptied and blocked with 200 μL/well PBS containing 0.05% Tween-20 (PBST) while shaking (300 rpm), at RT for 1 hour, washed three times with 300 μL PBST and emptied. Subsequently, 100 μL anti-CD74 ADCs or unconjugated CD74-specific HuMab antibodies were added in serial dilutions in PBST and incubated while shaking at RT for 2 hours. ELISA plates were washed with PBST and emptied. Bound anti-CD74 ADCs and unconjugated HuMab antibodies were detected by addition of HRP-conjugated mouse-anti human IgG1 (100 μL; 0.015 μg/mL; Sanquin; # M1328) in PBST and incubation while shaking, at RT for 2 hours. Plates were washed with PBST, emptied and incubated with 100 μL ABTS solution (50 ml ABTS buffer [Roche] and one ABTS tablet [50 mg; Roche]). After incubation in the dark while shaking, at RT for 30 min, the reaction was stopped by incubation with 100 μL per well oxalic acid (2% [w/v]; Riedel de Haen) in the dark while shaking, for 10 min. Plates were measured at OD 405 nm in an ELISA reader (Biotek Instruments, EL808 Absorbance Microplate Reader).
IgG1-b12, an antibody binding to a non-related antigen, was used as a negative control (both unconjugated as well as in ADC format). Binding curves were analyzed by non-linear regression (sigmoidal dose-response with variable slope) using GraphPad Prism 5 software (GraphPad Software, San Diego, Calif., USA).

[3] = target: human CD74, naturally expressed on cells (Raji, Daudi, M4A4, NCI-H747 cells; human tonsil tissue) (human) (UniProt P04233); assay: FACS on Daudi cells, 10 µg/mL; mean of three experiments
[4] = target: human CD74, naturally expressed on cells (Raji, Daudi, M4A4, NCI-H747 cells; human tonsil tissue) (human) (UniProt P04233); assay: cell-based or functional assay
[5] = target: human CD74, naturally expressed on cells (Raji, Daudi, M4A4, NCI-H747 cells; human tonsil tissue) (human) (UniProt P04233); assay: FACS on Daudi cells at 0° C., Alexa-488-labeled antibody displaced by excess unlabeled antibody
[6] = target: human CD74, naturally expressed on cells (Raji, Daudi, M4A4, NCI-H747 cells; human tonsil tissue) (human) (UniProt P04233); assay: FACS on Raji cells
[7] = target: T1, HisCD74v1 (recombinant extracellular …); assay: ELISA, coated recombinant CD74v1 extracellular domain
Protocol: (§1) ELISA plates (Greiner BioOne) were coated 0/N at 4° C. with 2 μg/mL, 100 μL per well, recombinant CD74v1 or CD74v2 in PBS (B. Braun Melsungen AG). Sequences and production of the isoforms were described supra. ELISA wells were washed three times with PBS containing 0.05% Tween-20 (PBST), emptied, and blocked with 1% (w/v) BSA fraction V (Roche) in PBS at RT for 1 h while shaking (300 rpm), and emptied. Subsequently, 100 μL anti-CD74 HuMab antibodies were added in serial dilutions in 0.2% (w/v) BSA fraction V in PBST (assay buffer) and incubated while shaking at RT for 90 min. ELISA plates were washed three times with PBST, emptied, and bound HuMab antibodies were detected using HRP-conjugated goat-anti human IgG (100 μL; 1:5,000; Peroxidase Affinipure Goat anti-human IgG, F(ab′)2 Fragment Specific [min X Bov,Hrs,Ms Sr Prot]; Jackson Immunoresearch) in assay buffer and incubated while shaking at RT for 90 min. Plates were washed three times with PBST, emptied, and incubated with 100 μL ABTS solution (50 ml ABTS buffer [Roche] and one ABTS tablet [50 mg; Roche]). After incubation in the dark at RT for 30 min, the reaction was stopped by addition of 100 μL per well oxalic acid (2% [w/v]). Plates were measured at OD 405 nm in an ELISA reader (Biotek Instruments, EL808 Absorbance Microplate Reader).
(§2) Isotype control Ab IgG1-b12 was used as a negative control. Binding curves were analyzed using non-linear regression (sigmoidal dose-response with variable slope) using GraphPad Prism 5 software (GraphPad Software, San Diego, Calif., USA).

[8] = target: T2, HisCD74v2 (recombinant extracellular domain of human CD74 variant 2, N-terminal hexameric His tag) (human, UniProt P04233 73-296); assay: ELISA, coated recombinant CD74v2 extracellular domain
T2 construct: also called recombinant CD74v2; CD74v2 extracellular domain
T2 sequence: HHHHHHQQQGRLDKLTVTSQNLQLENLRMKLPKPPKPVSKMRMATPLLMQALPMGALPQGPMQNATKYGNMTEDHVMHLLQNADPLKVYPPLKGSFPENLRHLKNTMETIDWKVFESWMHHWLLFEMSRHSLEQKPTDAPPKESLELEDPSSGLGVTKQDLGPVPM
Protocol: as §1, §2

Row | Binder | EC50 [1] | EC50 [2] | Maximal binding (MFI at 10 µg/mL) [3] | % kill of Daudi cells at 10 µg/mL [4] | % kill of M4A4 cells at 10 µg/mL [4] | % kill of NCI-H747 cells at 10 µg/mL [4] | % kill of Raji cells at 10 µg/mL [4] | IC50 of killing of Daudi cells [4] | IC50 of killing of M4A4 cells [4] | IC50 of killing of Raji cells [4] | IC50 of killing of NCI-H747 cells [4] | koff [5] | time until half of the bound labeled antibody was replaced [5] | % viability (minimal) of Raji cells, anti-kappa-ETA' assay [4] | EC50 of killing of Raji cells, anti-kappa-ETA' assay [4] | EC50 [6] | EC50 [7] | EC50 [8]
1 | B1 | 0.03 µg/mL | 0.02 µg/mL | 4050 MFI | 93% | 97% | 21% | 93% | 0.01 µg/mL | 0.12 µg/mL | 0.01 µg/mL |  |  |  |  |  |  |  | 
2 | B2 | 0.03 µg/mL | 0.03 µg/mL | 3280 MFI | 85% | 100% | 49% | 90% | 0.03 µg/mL | 0.28 µg/mL | 0.05 µg/mL | 6.12 µg/mL |  |  |  |  |  |  | 
3 | B3 | 0.04 µg/mL | 0.02 µg/mL | 4600 MFI |  |  |  |  |  |  |  |  | 0.004 s⁻¹ | 3 min | 1.5% | 57 µg/mL | 0.196 µg/mL | 0.321 µg/mL | 0.21 µg/mL
4 | B4 | 1.27 µg/mL | 0.03 µg/mL | 2780 MFI |  |  |  |  |  |  |  |  |  |  |  |  |  |  | 
5 | B5 | 0.26 µg/mL | 0.04 µg/mL | 2860 MFI | 85% | 100% | 41% | 88% | 0.08 µg/mL | 0.56 µg/mL | 0.11 µg/mL | 7.48 µg/mL |  |  |  |  |  |  | 
6 | B6 | 1.05 µg/mL | 0.04 µg/mL | 2530 MFI | 90% | 97% | 5% | 92% | 0.03 µg/mL | 0.38 µg/mL | 0.05 µg/mL |  |  |  |  |  |  |  | 

Reference: patent US20170173151A1 (Genmab, published 2017)
